Results taken from the DeepSol protein solubility set.

assay: soluble on expression in E. coli; label from the status in PepcDB or PDB records

| Sequence | soluble on expression in E. coli |
| --- | --- |
| MPTVPIPARKAATTFDTPSKHERIEVKPPITRFIRRAITRVFGVWSHISTQVVRQWGWYPRVEPYVGYGTGDYSRLICRTVYAPKHAQSGELIRGIRGMLAVPAPRTHVQASIDDMPLNTVQIGVSEVYDKVDRTRDLGSEYAISDSAGYLDLVAEHRLVPGIHRVSYSVANRKPVSANLYTIPASAKVGIISDVDDTIMITQAPVPWKAAYNLLFLDPKKKASVPGMSVLFTRIADLFPGAPFFYLSTSPWNVESSIRNFITDHGFPEGPLLLRDLDPRPKTFVPTGPQHKLEFAEQLMADFPDMKFILVGDDGQKDPTTYATIARRYPGRVLAIVIRELSPRESTGLASVTGLTSTQPTPVTDVPVFTGTTGSNILKTMLPYLKTVLRLEHHHHHH | not soluble |
| MPVEEKKKGMAIHSSLSLSLSLSLSLSLSLCDSEREG | not soluble |
| MPVKCPGEYQVDGKKVILDEDCFMQNPEDWDEKVAEWLARELEGIQKMTEEHWKLVKYLREYWETFGSCPPIKMVTKETGFSLEKIYQLFPSGPAHGACKVAGAPKPTGCV | soluble |
| MPYYVYLLACGKHGTLYLGVTNDLVRRVHEHRSKATPGFSEHYGVGRLVWFEIYHDAITAITREKQLKKWRRDWKVRLIENQNPDWVDLYPGICR | not soluble |
| MQAEGEKSDKISKISTGIPRVDELLYGGFDGRDNIVVSGNNFSQKRSFIYNFIKSSANSGMKVIIINVDGSSESLLADLARRGTDLENIILLDGFSKNFQEKVPPNAEVIDDPSNVSSVLKQYMLRAQKEKDFIFVFLSATPYLMDFNDQNRKFFVQLVHWNRKNSLLSTYVLDDFVGQTTAEWFAYMMDFSLYFKNDGDYDYMRVLSLKPVRTKDWIRIYKDSDVFTLGSFNVERIR | not soluble |
| MQALILEQQDGKTLASVQHLEESQLPAGDVTVDVHWSSLNYKDALAITGKGKIIRHFPMIPGIDFAGTVHASEDPRFHAGQEVLLTGWGVGENHWGGLAERARVKGDWLVALPAGLSSRNAMIIGTAGFTAMLCVMALEDAGIRPQDGEVVVTGASGGVGSTAVALLHKLGYQVAAVSGRESTHGYLKSLGANRILSRDEFAESRPLEKQLWAGAIDTVGDKVLAKVLAQMNYGGCVAACGLAGGFALPTTVMPFILRNVRLQGVDSVMTPPARRAEAWARLVKDLPESFYAQAATEITLADAPKFADAIINNQVQGRTLVKIK | not soluble |
| MQALTTYKCIEKGIVVWLTGLPGSGKTTIATRLADLLQKEGYRVEVLDGDWARTTVSEGAGFTREERLRHLKRIAWIARLLARNGVIVICSFVSPYKQARNMVRRIVEEEGIPFLEIYVKASLEEVIRRDPKGLYKKALKGELENFTGITDPYEPPENPQLVLDTESNTIEHNVSYLYSLVKAVIE | soluble |
| MQANSEEYCELCGSQIRGKGITVSYEGSIITVCNSCYDRIRKHAVIVKADSKKSETRKKATLKPPKMENAELEIVTDYYKIIKTAREQLGISQQQLAQKLKVSENIVKRFESGKLKPTISQARQLEKILGIKLVTPLENNEESEKEFDDTGLTLGDVVNIKEGKK | not soluble |
| MQAYSNPGYSSFPSPTGLEPSCKSCGAHFANTARKQTCLDCKKNFCMTCSSQVGNGPRLCLLCQRFRATAFQREELMKMKVKDLRDYLSLHDISTEMCREKEELVLLVLGQQPVISQEDR | soluble |
| MQDEESLMWVQFGGDDGKQVVAELAMRADKYAVRTRDNSSPVLTGFEGVPTYAYSPAWVIEGRFEPYAEPMDVPIGTANPLVDGVHRSVGEVVFRAPGVPHEIRLHAEEEKLGALNVTFHDETNGDTTDEWRKVFIPRPRPDGSVVIDFNRAINYPSAFTPYGTCPMPVRGNSVDVRVEAGEKLPQGLEHHHHHH | soluble |
| MQDLIKQYNTTLRQLREAQKDAKEEDVKVLTDMISDITYSLEWMKKARRPGNRRGVERLAAYQRERACDPLLMQRYFRSMDDNLYEWDNHQQEHSIGEWDKVRLEDALSLLTEREKEVYLMSRGYCLTYREIARYLDITCSTVQSMIERAEKKIARQVNESLFCNCG | not soluble |
| MQDLLTLRFLDTYDNILFIGNSGVGKTHLAVSIGLECIDRGLSCLFITSTELVNRLIRAHKRGTSETMLKKYSGYSVLIIDEVGYLPFSKEGSNLLFQLINMRYERKSTIVTTNIPLSQWSEIFGNKKLTNALLDRLVHHSKLIQITGPSYRMKSYSENKEVKSLEHHHHHH | soluble |
| MQDRNFDDIAEKFSRNIYGTTKGQLRQAILWQDLDRVLEEIGGRKLRVLDAGGGEGQTAIKMAERGHQVTLCDLSGEMIARARQAAEAKGVSKDMHFIQCPAQDVASHLESPVDLILFHAVLEWVADPVGVLETLWSVLRPGGALSLMFYNANGLLMHNMVAGNFDYVQAGMPKRKKRTLSPDYPRDPAQVYQWLEAIGWQITGKTGVRVFHDYLREKHQQRDCYETLVELETRYCRQEPYISLGRYIHVTAIKSPALAADARITYE | not soluble |
| MQELQLKVTQAQVEIIDREKFEQNINEVVAKYQNYAVTAGTIKDDKQVLADLRKLKKQLSDERIKVKKELSKPADDIDGYIKQASKPLDDTIDKIATDVKEFEDHQKALRLDTVKSYLSNKASEYMLDPRIFDEKAMEYTKAGNFMADGVTLKKVTMKSLEDLVTFEYQKEQEVEKAKATISGQCAEYGMTDQPYIRMLKEMTLVEVLGQIKADYLAEKQK | not soluble |
| MQEVAMSSQEASKMLRTYNIAWWGNNYYDVNELGHISVCPDPDVPEARVDLAQLVKTREAQGQRLPALFCFPQILQHRLRSINAAFKRARESYGYNGDYFLVYPIKVNQHRRVIESLIHSGEPLGLEAGSKAELMAVLAHAGMTRSVIVCNGYKDREYIRLALIGEKMGHKVYLVIEKMSEIAIVLDEAERLNVVPRLGVRARLASQGSGKWQSSGGEKSKFGLAATQVLQLVETLREAGRLDSLQLLHFHLGSQMANIRDIATGVRESARFYVELHKLGVNIQCFDVGGGLGVDYEGTRSQSDCSVNYGLNEYANNIIWAIGDACEENGLPHPTVITESGRAVTAHHTVLVSNIIGVERNEYTVPTAPAEDAPRALQSMWETWQEMHEPGTRRSLREWLHDSQMDLHDIHIGYSSGIFSLQERAWAEQLYLSMCHEVQKQLDPQNRAHRPIIDELQERMADKMYVNFSLFQSMPDAWGIDQLFPVLPLEGLDQVPERRAVLLDITCDSDGAIDHYIDGDGIATTMPMPEYDPENPPMLGFFMVGAYQEILGNMHNLFGDTEAVDVFVFPDGSVEVELSDEGDTVADMLQYVQLDPKTLLTQFRDQVKKTDLDAELQQQFLEEFEAGLYGYTYLEDELEHHHHHH | not soluble |
| MQFYQPPAQQHLARSTPPPNFAQPYGMGMRPHEEETRQIMNLDSQQTHSSSPTSSWNQPYGQMSNPYQQRGPSLYAPPGPPVMHQNGPPGVVPTSNPYYQPPVPPQHHHMQPQAPMMSPGMHGQQQQQPYYNTQSPLTGTPPSMSYGTPQIPAPPPTSNGSAPMFNFSKPRNSNEGSLTNGGGGAAHRRKKHNDLSSPRYSSNSNEDVDGSVFPDMADFPLLDVVQSKAKKDAGRKPCRPHLCEQSRMLISRVCHFHREFIKRLPARHPLVNSPFSKPDQWTSQIMGISLATVRKCIDMAVDEEVFTRCTDKNLVNLTPSERAEREELLSKLSTVFEDEKSLGAGTAGMTIAEYSPRRSYSNTLLRQSTDDKSSTSSYNANGGEYGGSTETTLLNLDDHSNSSKDYGMTPTTPAAPVASSVTSDLGGGGGQVFEEIGAIGGGMSTESSLDDKSAVKIPKRGRPCKAPGTTATNKSTKRKESQDGGQEVGGPVEDKDDHEKKTEDEDETNEETEKIEVQQADQAEREDDAASSEGTNRSETATPELATDTTAVAKKTRSAAARRKNTKTVDDEFAGATKKKRGSVTAATAGIGGDDENSDHKMVTRARSRQP | not soluble |
| MQGDAAEKARLRGERLAARDALTPAERQQKSLSMTAHGVSGIPFAPGTVISGFMPIRSEVDTRPLMEALRARDGRLVLPVVLDQETIVFRVFEADTPLVKTGFGTTGPGEDAEVLDPHILLVPLSVFDGEGQRIGYGAGHYDRAIARLHAKGRQPVLIGIAFDCQEVASVPAEPHDVALHAVLTESGLRWFSAQRLEHHHHHH | not soluble |
| MQGLQLPQIYFSAAERRPKFVMKTGLSATEKNEVIKAAYRQIFERDITRAYSLSISDLESKVKNGDISMKEFVRRLAKSPLYQKQFYQPFINSRVIELAFRHILGRGPSSREEVQKYFSIISNGGLPALVDALVDSAEYSDYFGEETVPYLRGLGQEALEHHHHHH | not soluble |
| MQGNTMYKFEVFKDKAGEFRFRFRASNGEIMFSSEGYKAKASVLNAIESIKKNSPGAETVDQTTATV | soluble |
| MQHLTERMTQIAKLLNSSANNPDIDIPDFLTEIKDYSEFSVTDENGTYLHWDKFRRIHTEDTRMKWRAVKESRKKIQKPIDFPFEHQFWFCIPDSLQARLHLIDKSCGSSIGTSSLGGFGRSEQNRFLLKSLIMEEAITSAQLEGAATTRKVAKDMLKSQRKPKTKDEIMIVNNYHLMKKAVELKNTPLSVEMILDLHRIATSNAIENKAEPGQFRQDDEIFIADINGNSLYQPPPHGQVHTLMEEVCAFANNTYDGVENPFIHPVVQAIILHFLIGYIHPFGDGNGRTARALFYWFMLKNGYWLFEYISISRLLKNAPAQYAKSYLYAETDDLDLTYFIYYQCDIIKRAVADLEHYISDKQKHQQEFKAAIAQYTEKIGKLNQRQIGILQKAVEESGKIFTAQEIANQYGISLNTARSDLSKLGEYRFLVPFKSGNALEYVAPQDLLERLEKK | not soluble |
| MQIKDEILSLLKRGKNLLAFSYGSDSSVLFYLLMQEKIDFDLVMINYKTRKNSDLEELKAKELALKFHKKIFIKHAPKFQSNFEKKARDFRYDFFEKICLEQGYDHLILAHHLNDQFEWFLMQLSRGAGLAEILGMQECEKRSNYTLLRPLLFISKDEISSFLKEKDIFYFHDES | not soluble |
| MQIKTYKIKDICDIKRGRVISKLYIKNNPGEFPVYSSATVNNGEIGRIKDCDLKGEYVTWTTDGAQAGSVFYRNGQFNATNVCGILKVNNDEIYPKFLAYALRLKAPKFVNYACPIPKLMQGTLAEIELDFTSKKIQEKIATILDTFTELSAELSAELSAELSAELRERKKQYVFYSDYLLNPKNWK | soluble |
| MQILTLISWDFKRNNNFFNQAVLNPYEYWADILEKNGISRYVILLTCNRVEIYLRAGFPEDLEAMKPNVLHDEEAIKHLMEVSSGLDSMSLGENEILKQVKEAYELSVRNGKVDKVLSLIFQKAIFVGKKVRSETEISRGKVSVPSIVYDILSSRVVQKVLIIGNGMIAGEIAPYLSGKFEVTIAGRNIDHVKDLASKYNYSYTTINDLHELIMRNDAIISATSSKTPIIRREEMVEGKLYIDLGNPRNIEDKPGADIITIDDIYSVSNRNGSARMESVDEARRIIEIEMASLMNKIKDVMIDEIFADFYKFAVVVQKMEIEKFSRMHPEIPASDVEAFAHSMINKVMNIPVMTLKSVARSQSNQDFSRIFSKFYDNFSDLVSAALQSYEGRQDTQSLRDRTRRLLQRS | not soluble |
| MQINNQSRDVFYVSDGTAITCETLGHVVLGQFPFIPNEKTFPFVESQDKVADVVKEIETSYQRNGVKPLVFFSIVVPGVREMLLEAPAYSYDVLESIVQKVQDDIQMAPAPKLQRSRSVGKDSDTYFDRIAAIEYTLAHDDGITLKGLEQADIILLGVSRSGKTPTSLYMAMQFGLRVVNYPFIAEDVKMMRLLPEFEVHRHKLFGLTITPERLNEIRENRLSGSDYASEEQCKLELDTVEALFRREAIPYINTSSLSVEEISTRILERAGMKRRLFGLEHHHHHH | soluble |
| MQKAVVMDEQAIRRALTRIAHEIIERNKGIDGCVLVGIKTRGIYLARRLAERIEQIEGASVPVGELDITLYRDDLTVKTDDHEPLVKGTNVPFPVTERNVILVDDVLFTGRTVRAAMDAVMDLGRPARIQLAVLVDRGHRELPIRADFVGKNVPTSRSELIVVELSEVDGIDQVSIHEK | soluble |
